Laboratory results published in US20070264195A1 (H LUNDBECK A S, published 2007).

B5: recombinant human p75 neurotrophin receptor/Fc chimera (R&D Systems) (Fc fusion, UniProt P08138 29-250, looked up)
chain: KEACPTGLYTHSGECCKACNLGEGVAQPCGANQTVCEPCLDSVTFSDVVSATEPCKPCTECVGLQSMSAPCVEADDAVCRCAYGYYQDETTGRCEACRVCEAGSGLVFSCQDKQNTVCEECPDGTYSDEANHVDPCLPCTVCEDTERQLRECTRWADAECEEIPGRWITRSTPPEGSDSTAPSTQEPEAPPEQDLIASTVAGVVTTVMGSSQPVVTRGTTDN
notes: Bought reagent; also called p75-IgG-Fc chimeric protein; p75NTR; not shown: IgG Fc of the bought chimera

Assays:
[1] = target: B5; assay: SPR (BIAcore), 50-500 nM NGF over p75-IgG-Fc immobilized at 91.5 fmol/mm2
Method: (§1) FIG. 2: Characterization of NGF binding to p75, TrkA, and Sortilin as measured by surface plasmon resonance analysis (BIAcore). Binding of 50-500 nM NGF was measured to 91.5 fmol/mm² immobilized p75-IgG-Fc chimeric protein (upper panel), to 66 fmol/mm² immobilized TrkA-IgG-Fc (middle panel), and to 51 fmol/mm² purified Sortilin extracellular domain (lower panel).

[2] = target: T1, purified human Sortilin extracellular domain (human, UniProt Q99523 78-755); assay: SPR (BIAcore), 50-500 nM NGF over Sortilin extracellular domain immobilized at 51 fmol/mm2
T1 construct: also called immobilized Sortilin; NTR-3
T1 sequence: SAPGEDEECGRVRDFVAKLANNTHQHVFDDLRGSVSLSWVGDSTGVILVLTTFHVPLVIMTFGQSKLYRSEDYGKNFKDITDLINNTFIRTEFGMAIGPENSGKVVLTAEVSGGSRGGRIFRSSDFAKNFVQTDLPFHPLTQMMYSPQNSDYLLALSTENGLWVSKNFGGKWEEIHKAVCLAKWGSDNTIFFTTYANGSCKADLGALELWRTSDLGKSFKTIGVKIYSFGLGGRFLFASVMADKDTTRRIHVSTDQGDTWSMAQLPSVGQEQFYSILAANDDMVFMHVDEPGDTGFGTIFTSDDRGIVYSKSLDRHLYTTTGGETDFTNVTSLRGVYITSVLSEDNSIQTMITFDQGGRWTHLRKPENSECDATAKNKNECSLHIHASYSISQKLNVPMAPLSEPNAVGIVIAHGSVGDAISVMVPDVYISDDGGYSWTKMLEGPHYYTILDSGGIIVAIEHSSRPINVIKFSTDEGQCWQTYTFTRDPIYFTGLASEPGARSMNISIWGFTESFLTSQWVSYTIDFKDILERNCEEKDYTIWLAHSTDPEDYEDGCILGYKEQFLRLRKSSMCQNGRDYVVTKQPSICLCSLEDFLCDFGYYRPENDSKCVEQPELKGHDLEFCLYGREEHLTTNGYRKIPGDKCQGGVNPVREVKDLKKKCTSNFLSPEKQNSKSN
Method: as §1

[3] = target: T2, recombinant human TrkA/Fc chimera (R&D Systems) (human, UniProt P04629-2 34-407); assay: SPR (BIAcore), 50-500 nM NGF over TrkA-IgG-Fc immobilized at 66 fmol/mm2
T2 construct: Bought reagent; also called TrkA-IgG-Fc; not shown: IgG Fc of the bought chimera
Method: as §1

[4] = target: T1, purified human Sortilin extracellular …; assay: SPR (BIAcore), other preparations of mature BDNF over immobilized Sortilin; other preparations of mature BDNF
[5] = target: T1, purified human Sortilin extracellular …; assay: SPR (BIAcore), 5-500 nM BDNF over Sortilin extracellular domain immobilized at 94 fmol/mm2; Promega #G1491 preparation
Excerpt: (§2) FIG. 7: Characterization of proBDNF and BDNF binding to purified Sortilin as measured by surface plasmon resonance (BIAcore). Rat proBDNF was produced in 293 cells as described in Lee, R., Kermani, P., Teng, K. K. & Hempstead, B. L. Regulation of cell survival by secreted proneurotrophins. Science 294, 1945-1948 (2001). and purified from the conditioned medium. Mature recombinant human BDNF was from Promega (#G1491) and the pro-domain of human BDNF fused to GST (glutathione S-transferase) was produced in E. coli and purified by glutathione-sepharose affinity chromatography. Binding of 5-500 nM proBDNF (upper panel), pro-domain of proBDNF (a GST-fusion protein, middle panel) or BDNF (lower panel) was measured to 94 fmol/mm2 immobilized purified Sortilin extracellular domain. The experiment was carried out essentially as described for FIGS. 2-4.

[6] = target: T1, purified human Sortilin extracellular …; assay: SPR (BIAcore), 5-500 nM GST-pro-domain over Sortilin extracellular domain immobilized at 94 fmol/mm2
Excerpt: as §2

[7] = target: B5; assay: SPR (BIAcore), p75-IgG-Fc immobilized at 91.5 fmol/mm2
Method: as §1, with “4:” for “2:”, “of” for “of NGF”, “binding of the proNGF propeptide” for “binding”, “25-500” for “50-500”, “propeptide” for “NGF”, “panel). […] There was no detectable binding to p75 and TrkA.” for “panel).”

[8] = target: T2, recombinant human TrkA/Fc chimera (R&D …); assay: SPR (BIAcore), TrkA-IgG-Fc immobilized at 66 fmol/mm2
Method: as §1, with “4:” for “2:”, “of” for “of NGF”, “binding of the proNGF propeptide” for “binding”, “25-500” for “50-500”, “propeptide” for “NGF”, “panel). […] There was no detectable binding to p75 and TrkA.” for “panel).”

[9] = target: T1, purified human Sortilin extracellular …; assay: SPR (BIAcore), 25-500 nM propeptide over Sortilin extracellular domain immobilized at 51 fmol/mm2
Method: as §1, with “4:” for “2:”, “of” for “of NGF”, “binding of the proNGF propeptide” for “binding”, “25-500” for “50-500”, “propeptide” for “NGF”, “panel). […] There was no detectable binding to p75 and TrkA.” for “panel).”

[10] = target: T3, Human recombinant proNGF (produced in E. coli) (human, UniProt P01138 19-241); assay: SPR (BIAcore), 25-500 nM proNGF over p75-IgG-Fc immobilized at 91.5 fmol/mm2
T3 construct: The end 241 is the end of the entry as printed
Method: as §1, with “3:” for “2:”, “proNGF” for “NGF”, “25-500” for “50-500”

[11] = target: T1, purified human Sortilin extracellular …; assay: SPR (BIAcore), 5-500 nM proBDNF over Sortilin extracellular domain immobilized at 94 fmol/mm2
Excerpt: as §2

T2 sequence (P04629 other isoform, or with tags, fused parts or gaps mutant): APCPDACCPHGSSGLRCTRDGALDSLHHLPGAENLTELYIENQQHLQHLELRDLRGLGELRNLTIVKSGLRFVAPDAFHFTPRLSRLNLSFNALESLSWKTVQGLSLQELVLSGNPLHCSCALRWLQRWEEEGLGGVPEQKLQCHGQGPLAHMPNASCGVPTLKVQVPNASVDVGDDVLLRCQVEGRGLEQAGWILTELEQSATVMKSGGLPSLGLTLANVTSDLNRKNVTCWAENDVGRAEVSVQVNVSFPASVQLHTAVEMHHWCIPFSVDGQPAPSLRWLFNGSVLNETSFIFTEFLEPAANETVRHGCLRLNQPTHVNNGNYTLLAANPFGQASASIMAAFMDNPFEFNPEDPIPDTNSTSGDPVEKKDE

B1: Mature murine NGF (Austral Biologicals) (ligand, UniProt P01139 122-241, looked up)
chain: SSTHPVFHMGEFSVCDSVSVWVGDKTTATDIKGKEVTVLAEVNINNSVFRQYFFETKCRASNPVESGCRGIDSKHWNSYCTTTHTFVKALTTDEKQAAWRFIRIDTACVCVLSRKATRRG
notes: mature; also called nerve growth factor
- Kd [1]: ~1 nM
- Kd [2]: ~87 nM
- Kd [3]: ~2 nM

B2: Mature recombinant human BDNF (Promega #G1491) (ligand)
chain: HSDPARRGELSVCDSISEWVTAADKKTAVDMSGGTVTVLEKVPVSKGQLKQYFYETKCNPMGYTKEGCRGIDKRHWNSQCRTTQSYVRALTMDSKKRIGWRFIRIDTSCVCTLTIKRGR
notes: also called mature BDNF
- Kd [4]: 10 nM
- Kd [5]: ~40 nM

B3: pro-domain of human BDNF fused to GST (glutathione S-transferase), produced in E. coli (other)
chain: APMKEANIRGQGGLAYPGVRTHGTLESVNGPKAGSGLTSLADTFEHVIEELLDEDQKVRPNEENNKDADLYTSRVMLSSQVPLEPPLLFLLEEYKNYLDAANMSMRVRR
notes: The residues 19-127 come from the description of the propart for BDNF; also called GST-pro-domain of proBDNF; pro-domain of proBDNF (a GST-fusion protein); not shown: glutathione S-transferase (GST) fusion partner
- Kd [6]: ~58 nM

B4: human NGF-propeptide expressed in E. coli (peptide)
chain: EPHSESNVPAGHTIPQVHWTKLQHSLDTALRRARSAPAAAIAARVAGQTRNITVDPRLFKKRRLRSPRVLFSTQPPREAADTQDLDFEVGGAAPFNRTHRSKR
notes: The residues 19-121 come from the description of the propart for NGF; also called proNGF propeptide; propeptide of proNGF
- binding result [7]: no binding (tested: 25-500 nM propeptide)
- binding result [8]: no binding (tested: 25-500 nM propeptide)
- Kd [9]: ~87 nM

Binder: B5
- Kd [10]: ~12 nM

B6: Rat proBDNF (produced in 293 cells, purified from conditioned medium) (ligand, UniProt P23363 19-249, looked up)
chain: APMKEANVHGQGNLAYPAVRTHGTLESVNGPRAGSRGLTTTSLADTFEHVIEELLDEDQKVRPNEENHKDADLYTSRVMLSSQVPLEPPLLFLLEEYKNYLDAANMSMRVRRHSDPARRGELSVCDSISEWVTAADKKTAVDMSGGTVTVLEKVPVSKGQLKQYFYETKCNPMGYTKEGCRGIDKRHWNSQCRTTQSYVRALTMDSKKRIGWRFIRIDTSCVCTLTIKRGR
notes: Pro-form of BDNF
- Kd [11]: ~3 nM
